# Assay results as given in the supplement of paper PMC10724198.
# ± gives the standard deviation of the averaged measurements.
# Tested on: Saccharomyces cerevisiae
# Test: protein stability index of tFT-peptide fusion (C-terminal peptide) (PSI (0-1 scale)); higher = more stable (slower turnover)
# Settings: genetic background: cdc53-1; temperature: 37 C
# Experimental: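 MPS profiling in S. cerevisiae of the tFT-X12 degron library: putative degron peptides plus stable controls, 12 aa, fused to the C-terminus of a sfGFP-mCherry timer. Cells are FACS-sorted into 8 mCherry/sfGFP bins and deep-sequenced. PSI runs from 0 (unstable) to 1 (stable). Backgrounds are wild type, das1Δ and doa10Δ at 30 °C, and wild type, das1Δ, cdc34-1 and cdc53-1 at 37 °C; 2-3 technical replicates each.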
# 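Note: PSI is a weighted mean of sequencing reads over stability bins, variants kept only with over 10 reads, mCherry proximal and sfGFP distal, peptide attached via GGGS linker.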
row,Sequence,protein stability index
1,PPPPPSARSPFR,0.726 ± 0.012
2,RVIESRWFNRLC,0.72 ± 0.015
3,TFCVLLQFCVLV,0.398 ± 0.017

# Same assay, conditions: genetic background: das1 deletion; temperature: 30 C
row,Sequence,protein stability index
1,ACCLLFSFAFTV,0.32 ± 0.04
2,AFFALGSFFFLL,0.586 ± 0.039
3,AFRCVVLCWFLK,0.292 ± 0.038
4,AFVSVHRLRLAS,0.605 ± 0.017
5,AGLAPCFLLFVC,0.3 ± 0.033
6,AGMIKLRKKKVL,0.634 ± 0.021
7,AGSPPSRPPWLP,0.679 ± 0.051
8,AGVRLIFLFWGF,0.43 ± 0.037
9,AHSFKCVGVAVR,0.332 ± 0.024
10,AIREVQYSFFPS,0.652 ± 0.0074
11,ALERCFIRRVTV,0.415 ± 0.017
12,ALVYVPACRLVV,0.492 ± 0.021
13,APCRVPVLGLVF,0.235 ± 0.036
14,APLPPVCPSPSL,0.655 ± 0.0086
15,ARRRYEVLAVLV,0.459 ± 0.041
16,ASTGPLAAIRVY,0.396 ± 0.028
17,AVCVGILIWATV,0.176 ± 0.029
18,AVLVSGMVVWLV,0.54 ± 0.025
19,AVSFTLVLCSCF,0.416 ± 0.039
20,AVVLLFIPRKLL,0.39 ± 0.029
21,AVWVAVEVEAGR,0.331 ± 0.026
22,AVYEGLLIRCLI,0.392 ± 0.033
23,AYFLKRSSILVR,0.241 ± 0.031
24,CAIHIKIQMSVE,0.0577 ± 0.019
25,CALCIGTYIRVV,0.385 ± 0.029
26,CCLFFLVVFVGW,0.191 ± 0.034
27,CCNVLFRVCLFL,0.405 ± 0.042

row,Sequence,protein stability index
1,CFGVVVLGLSLD,0.352 ± 0.039
2,CFLPFFIIFIFV,0.209 ± 0.037
3,CFVFIGVGVLLG,0.29 ± 0.039
4,CIEIDHVIVAIC,0.348 ± 0.035
5,CKFLYMALLFFW,0.263 ± 0.032
6,CLFLVFCFCVCS,0.547 ± 0.031
7,CLGFWVCCYCLV,0.474 ± 0.006
8,CLHWFMVLFRVL,0.296 ± 0.043
9,CLLLVISSLCSG,0.336 ± 0.014
10,CLVLCLSIPSPL,0.497 ± 0.03
11,CLVWLVRIIVLD,0.201 ± 0.031
12,CPFFFFSLIFLF,0.228 ± 0.041
13,CRLFPFPLLAQL,0.628 ± 0.021
14,CSAARKDGLAPL,0.649 ± 0.02
15,CSLPVLFLPYYL,0.523 ± 0.022
16,CSPVNGSAVWSI,0.668 ± 0.02
17,CSSFFLLLFFLF,0.335 ± 0.021
18,CSWMRSRMWVGG,0.422 ± 0.0063
19,CTWGRYGGIWLR,0.136 ± 0.062
20,CVFCLTVFVRFL,0.192 ± 0.028
21,CVFVWFWCMTWV,0.0811 ± 0.048
22,CVLFLGQILCVV,0.28 ± 0.033
23,CYSRRGCIYFFF,0.583 ± 0.016
24,DHSIYYGVAKVF,0.5745 ± 0.0018
25,DKKNCIIIYYKQ,0.653 ± 0.021
26,DLDLLTKFSKEC,0.628 ± 0.043
27,DNTVWLRLVTSC,0.402 ± 0.017

row,Sequence,protein stability index
1,DRHCLVSLSPDG,0.618 ± 0.015
2,DRLAVLVLLRVY,0.137 ± 0.041
3,DRRFLVMISVSL,0.272 ± 0.045
4,DRSPLPAIFVAQ,0.674 ± 0.013
5,DTAFLLVVVVGR,0.257 ± 0.028
6,DYIFVYAVMFMR,0.152 ± 0.026
7,EFCITAFVSVLT,0.324 ± 0.033
8,EGLRVSVCAWVM,0.313 ± 0.03
9,EHIRWLLPKHCL,0.647 ± 0.03
10,EIKTEIGKKKKN,0.723 ± 0.05
11,EINRKKRKTKIN,0.67 ± 0.047
12,ERGSLPRIHHLI,0.688 ± 0.085
13,ERLVFKRWYLCL,0.571 ± 0.033
14,ESCVRSRRVLLC,0.621 ± 0.013
15,FCLRQPMLRFFI,0.562 ± 0.037
16,FLFVSVFHPALL,0.593 ± 0.059
17,GAVGGWGWVSFV,0.603 ± 0.034
18,GGCGFVWWRLLG,0.622 ± 0.033
19,GGGRGGRWGRLC,0.654 ± 0.013
20,GLLMCNPLLHSI,0.674 ± 0.038
21,IMWAFFMFCSFL,0.428 ± 0.057
22,LSLCFGPFFYFP,0.64 ± 0.029
23,PPPPPSARSPFR,0.633 ± 0.027
24,RVIESRWFNRLC,0.656 ± 0.025
25,TFCVLLQFCVLV,0.308 ± 0.028

# Same assay, conditions: genetic background: das1 deletion; temperature: 37 C
row,Sequence,protein stability index
1,ACCLLFSFAFTV,0.517 ± 0.0016
2,AFFALGSFFFLL,0.7296 ± 0.0054
3,AFRCVVLCWFLK,0.498 ± 0.0098
4,AFVSVHRLRLAS,0.734 ± 0.01
5,AGLAPCFLLFVC,0.44 ± 0.0063
6,AGMIKLRKKKVL,0.7208 ± 0.0012
7,AGSPPSRPPWLP,0.759 ± 0.024
8,AGVRLIFLFWGF,0.6496 ± 0.0056
9,AHSFKCVGVAVR,0.5469 ± 0.0017
10,AIREVQYSFFPS,0.7527 ± 0.0042
11,ALERCFIRRVTV,0.593 ± 0.021
12,ALVYVPACRLVV,0.634 ± 0.024
13,APCRVPVLGLVF,0.364 ± 0.018
14,APLPPVCPSPSL,0.713 ± 0.019
15,ARRRYEVLAVLV,0.5983 ± 0.0026
16,ASTGPLAAIRVY,0.5994 ± 0.0011
17,AVCVGILIWATV,0.275 ± 0.013
18,AVLVSGMVVWLV,0.672 ± 0.06
19,AVSFTLVLCSCF,0.473 ± 0.023
20,AVVLLFIPRKLL,0.568 ± 0.014
21,AVWVAVEVEAGR,0.5447 ± 0.0044
22,AVYEGLLIRCLI,0.5549 ± 0.0045
23,AYFLKRSSILVR,0.439 ± 0.011
24,CAIHIKIQMSVE,0.136 ± 0.031
25,CALCIGTYIRVV,0.552 ± 0.0098

row,Sequence,protein stability index
1,CCLFFLVVFVGW,0.335 ± 0.027
2,CCNVLFRVCLFL,0.542 ± 0.022
3,CFGVVVLGLSLD,0.564 ± 0.015
4,CFLPFFIIFIFV,0.32781 ± 3.9e-05
5,CFVFIGVGVLLG,0.4436 ± 0.00094
6,CIEIDHVIVAIC,0.563 ± 0.03
7,CKFLYMALLFFW,0.423 ± 0.025
8,CLFLVFCFCVCS,0.596 ± 0.077
9,CLGFWVCCYCLV,0.592 ± 0.0093
10,CLHWFMVLFRVL,0.426 ± 0.0053
11,CLLLVISSLCSG,0.529 ± 0.023
12,CLVLCLSIPSPL,0.6133 ± 0.0046
13,CLVWLVRIIVLD,0.366 ± 0.039
14,CPFFFFSLIFLF,0.329 ± 0.011
15,CRLFPFPLLAQL,0.7522 ± 0.0063
16,CSAARKDGLAPL,0.7342 ± 0.0011
17,CSLPVLFLPYYL,0.625 ± 0.022
18,CSPVNGSAVWSI,0.7551 ± 0.00081
19,CSSFFLLLFFLF,0.451 ± 0.029
20,CSWMRSRMWVGG,0.36 ± 0.0087
21,CTWGRYGGIWLR,0.144 ± 0.013
22,CVFCLTVFVRFL,0.346 ± 0.015
23,CVFVWFWCMTWV,0.313 ± 0.15
24,CVLFLGQILCVV,0.3857 ± 0.00079
25,CYSRRGCIYFFF,0.698 ± 0.0099

row,Sequence,protein stability index
1,DHSIYYGVAKVF,0.694 ± 0.018
2,DKKNCIIIYYKQ,0.6973 ± 0.0046
3,DLDLLTKFSKEC,0.743 ± 0.028
4,DNTVWLRLVTSC,0.565 ± 0.013
5,DRHCLVSLSPDG,0.686 ± 0.029
6,DRLAVLVLLRVY,0.182 ± 0.0035
7,DRRFLVMISVSL,0.458 ± 0.008
8,DRSPLPAIFVAQ,0.7428 ± 0.0073
9,DTAFLLVVVVGR,0.446 ± 0.017
10,DYIFVYAVMFMR,0.319 ± 0.02
11,EFCITAFVSVLT,0.483 ± 0.017
12,EGLRVSVCAWVM,0.4385 ± 0.0017
13,EHIRWLLPKHCL,0.725 ± 0.03
14,EIKTEIGKKKKN,0.658 ± 0.045
15,EINRKKRKTKIN,0.771 ± 0.011
16,ERGSLPRIHHLI,0.736 ± 0.011
17,ERLVFKRWYLCL,0.7056 ± 0.0052
18,ESCVRSRRVLLC,0.73 ± 0.027
19,FCLRQPMLRFFI,0.639 ± 0.0057
20,FLFVSVFHPALL,0.6911 ± 0.0062
21,GAVGGWGWVSFV,0.771 ± 0.01
22,GGCGFVWWRLLG,0.752 ± 0.0098
23,GGGRGGRWGRLC,0.7395 ± 0.007
